Data reported in the supplement of paper PMC11246515.
± gives the standard deviation of the averaged measurements.

Assay: total protein half-life in vivo (active degradation + dilution); higher = more stable protein
[1] = E. coli NCM3722 delta-clpP delta-lon delta-hslV, growth: N-lim chemostat, doubling time 6 h
[2] = E. coli NCM3722 delta-clpP, growth: N-lim chemostat, doubling time 6 h
[3] = E. coli NCM3722 delta-hslV, growth: N-lim chemostat, doubling time 6 h
[4] = E. coli NCM3722 delta-lon, growth: N-lim chemostat, doubling time 6 h
[5] = E. coli NCM3722 delta-smpB, growth: N-lim chemostat, doubling time 6 h
[6] = wild type E. coli NCM3722, growth: C-lim chemostat, doubling time 3 h
[7] = wild type E. coli NCM3722, growth: C-lim chemostat, doubling time 6 h
[8] = wild type E. coli NCM3722, growth: C-lim chemostat, doubling time 12 h
[9] = wild type E. coli NCM3722, growth: N-lim chemostat, doubling time 6 h
[10] = wild type E. coli NCM3722, growth: N-lim chemostat, doubling time 12 h
[11] = wild type E. coli NCM3722, growth: P-lim chemostat, doubling time 6 h
[12] = wild type E. coli NCM3722, growth: P-lim chemostat, doubling time 12 h

| Sequence | total protein half-life in vivo [1] [h] | total protein half-life in vivo [2] [h] | total protein half-life in vivo [3] [h] | total protein half-life in vivo [4] [h] | total protein half-life in vivo [5] [h] | total protein half-life in vivo [6] [h] | total protein half-life in vivo [7] [h] | total protein half-life in vivo [8] [h] | total protein half-life in vivo [9] [h] | total protein half-life in vivo [10] [h] | total protein half-life in vivo [11] [h] | total protein half-life in vivo [12] [h] |
| --- | --- | --- | --- | --- | --- | --- | --- | --- | --- | --- | --- | --- |
| MIQPISGPPPGQPPGQGDNLPSGTGNQPLSSQQRTSLESLMTKVTSLTQQQRAELWAGIRHDIGLSGDSPLLSRHFPAAEHNLAQRLLAAQKSHSARQLLAQLGEYLRLGNNRQAVTDYIRHNFGQTPLNQLSPEQLKTILTLLQEGKMVIPQPQQREATDRPLLPAEHNALKQLVTKLAAATGEPSKQIWQSMLELSGVKDGELIPAKLFNHLVTWLQARQTLSQQNTPTLESLQMTLKQPLDASELAALSAYIQQKYGLSAQSSLSSAQAEDILNQLYQRRVKGIDPRVMQPLLNPFPPMMDTLQNMATRPALWILLVAIILMLVWLVR | 3.57 ± 0.29 | 3.889 ± 0.021 | 3.71 ± 0.25 | 3.18 ± 0.34 | 3.56 ± 0.12 | 2.64 ± 0.22 | 4.57 ± 0.41 | 6.56 | 3.65 ± 0.16 | 5.38 ± 0.4 | 3.705 ± 0.012 | 6.51 ± 0.24 |
| MIQSQINRNIRLDLADAILLSKAKKDLSFAEIADGTGLAEAFVTAALLGQQALPADAARLVGAKLDLDEDSILLLQMIPLRGCIDDRIPTDPTMYRFYEMLQVYGTTLKALVHEKFGDGIISAINFKLDVKKVADPEGGERAVITLDGKYLPTKPF | 5.03 ± 0.21 |  |  | 5.12 |  |  | 5.48 | 10.6 ± 0.58 | 3.64 | 11.9 |  | 11.1 |
| MIRFEHVSKAYLGGRQALQGVTFHMQPGEMAFLTGHSGAGKSTLLKLICGIERPSAGKIWFSGHDITRLKNREVPFLRRQIGMIFQDHHLLMDRTVYDNVAIPLIIAGASGDDIRRRVSAALDKVGLLDKAKNFPIQLSGGEQQRVGIARAVVNKPAVLLADEPTGNLDDALSEGILRLFEEFNRVGVTVLMATHDINLISRRSYRMLTLSDGHLHGGVGHE [P0A9R7] | 5.85 ± 0.08 |  | 5.57 ± 0.067 | 5.62 ± 0.4 | 5.32 ± 0.056 | 2.762 ± 0.02 | 5.52 ± 0.12 | 10.1 ± 0.31 | 5.48 ± 0.17 | 9.44 ± 1.1 | 5.26 ± 0.17 | 11.9 ± 2.3 |
| MIRLAPLITADVDTTTLPGGKASDAAQDFLALLSEALAGETTTDKAAPQLLVATDKPTTKGEPLISDIVSDAQQANLLIPVDETPPVINDEQSTSTPLTTAQTMALAAVADKNTTKDEKADDLNEDVTASLSALFAMLPGFDNTPKVTDAPSTVLPTEKPTLFTKLTSEQLTTAQPDDAPGTPAQPLTPLVAEAQSKAEVISTPSPVTAAASPLITPHQTQPLPTVAAPVLSAPLGSHEWQQSLSQHISLFTRQGQQSAELRLHPQDLGEVQISLKVDDNQAQIQMVSPHQHVRAALEAALPVLRTQLAESGIQLGQSNISGESFSGQQQAASQQQQSQRTANHEPLAGEDDDTLPVPVSLQGRVTGNSGVDIFA | 2.6 |  |  |  |  | 0.287 | 0.34 |  |  |  |  |  |
| MIRSMTAYARREIKGEWGSATWEMRSVNQRYLETYFRLPEQFRSLEPVVRERIRSRLTRGKVECTLRYEPDVSAQGELILNEKLAKQLVTAANWVKMQSDEGEINPVDILRWPGVMAAQEQDLDAIAAEILAALDGTLDDFIVARETEGQALKALIEQRLEGVTAEVVKVRSHMPEILQWQRERLVAKLEDAQVQLENNRLEQELVLLAQRIDVAEELDRLEAHVKETYNILKKKEAVGRRLDFMMQEFNRESNTLASKSINAEVTNSAIELKVLIEQMREQIQNIE | 4.67 ± 0.13 | 4.26 ± 0.17 | 4.15 ± 0.007 | 4.46 ± 0.36 | 4.24 ± 0.048 | 3.203 ± 0.032 | 5.69 ± 0.37 | 9.42 ± 0.49 | 4.21 ± 0.05 | 6.64 ± 0.2 | 5.83 ± 0.37 | 12.9 ± 1.8 |
| MISDIRKDAEVRMDKCVEAFKTQISKIRTGRASPSLLDGIVVEYYGTPTPLRQLASVTVEDSRTLKINVFDRSMSPAVEKAIMASDLGLNPNSAGSDIRVPLPPLTEERRKDLTKIVRGEAEQARVAVRNVRRDANDKVKALLKDKEISEDDDRRSQDDVQKLTDAAIKKIEAALADKEAELMQF [P0A805] | 4.75 ± 0.095 | 4.0455 ± 0.00085 | 4.18 ± 0.071 | 5.16 ± 0.078 | 3.87 ± 0.05 | 2.851 ± 0.0093 | 4.84 ± 0.37 | 8.3 ± 0.69 | 3.38 ± 0.24 | 5.74 ± 0.96 | 5.04 ± 0.18 | 9.21 ± 0.22 |
| MISLFDMFKVGIGPSSSHTVGPMKAGKQFVDDLVEKGLLDSVTRVAVDVYGSLSLTGKGHHTDIAIIMGLAGNEPATVDIDSIPGFIRDVEERERLLLAQGRHEVDFPRDNGMRFHNGNLPLHENGMQIHAYNGDEVVYSKTYYSIGGGFIVDEEHFGQDAANEVSVPYPFKSATELLAYCNETGYSLSGLAMQNELALHSKKEIDEYFAHVWQTMQACIDRGMNTEGVLPGPLRVPRRASALRRMLVSSDKLSNDPMNVIDWVNMFALAVNEENAAGGRVVTAPTNGACGIVPAVLAYYDHFIESVSPDIYTRYFMAAGAIGALYKMNASISGAEVGCQGEVGVACSMAAAGLAELLGGSPEQVCVAAEIGMEHNLGLTCDPVAGQVQVPCIERNAIASVKAINAARMALRRTSAPRVSLDKVIETMYETGKDMNAKYRETSRGGLAIKVQCD | 3.76 ± 0.4 | 3.54 ± 0.37 | 1.9 ± 0.28 | 2.48 ± 0.38 | 1.78 ± 0.14 | 1.52 ± 0.084 | 2.267 ± 0.0096 | 3.25 ± 0.43 | 2.08 ± 0.26 | 2.57 ± 0.32 | 3.4 ± 0.63 | 7.67 ± 0.65 |
